Patent US20210269521A1 (L AND L BIOPHARMA, published 2021)

Columns and labels:
[1] = molecular target: T1, human TIM-3 extracellular domain-human IgG1 Fc fusion protein (human, UniProt Q8TDQ0 22-199); assay: ELISA; pH 5.5, 37°C 7 days
T1 construct: Made in house or bought (ACROBiosystems TM3-H5258); also called TIM-3-hFc; not shown: human IgG1 Fc

[2] = molecular target: T2, human PD-1 extracellular domain protein expressed in Example 1 (tag not stated) (human, UniProt Q15116 25-170); assay: ELISA; pH 5.5, 37°C 7 days
T2 construct: extracellular domain; also called PD-1 protein; not shown: human IgG1 Fc or his tag

[3] = molecular target: T1, human TIM-3 extracellular domain-human …; assay: ELISA; pH 6.0, 37°C 7 days
[4] = molecular target: T2, human PD-1 extracellular domain protein …; assay: ELISA; pH 6.0, 37°C 7 days
[5] = molecular target: T1, human TIM-3 extracellular domain-human …; assay: ELISA; pH 5.5, 37°C 5 days
[6] = molecular target: T2, human PD-1 extracellular domain protein …; assay: ELISA; pH 5.5, 37°C 5 days
[7] = molecular target: T2, human PD-1 extracellular domain protein …; assay: ELISA; PBS, 37°C 7 days, against 0 day
[8] = molecular target: T1, human TIM-3 extracellular domain-human …; assay: ELISA; PBS, 37°C 14 days, against 0 day
[9] = molecular target: T2, human PD-1 extracellular domain protein …; assay: ELISA; PBS, 37°C 14 days, against 0 day
[10] = molecular target: T1, human TIM-3 extracellular domain-human …; assay: ELISA; pH 5.5, 37°C 7 days, against 0 day
[11] = molecular target: T2, human PD-1 extracellular domain protein …; assay: ELISA; pH 5.5, 37°C 7 days, against 0 day
[12] = molecular target: T1, human TIM-3 extracellular domain-human …; assay: ELISA; pH 5.5, 37°C 5 days, against 0 day
[13] = molecular target: T2, human PD-1 extracellular domain protein …; assay: ELISA; pH 5.5, 37°C 5 days, against 0 day
[14] = molecular target: T1, human TIM-3 extracellular domain-human …; assay: ELISA; pH 5.5, 37°C 10 days, against 0 day
[15] = molecular target: T2, human PD-1 extracellular domain protein …; assay: ELISA; pH 5.5, 37°C 10 days, against 0 day
[16] = molecular target: T1, human TIM-3 extracellular domain-human …; assay: ELISA; pH 5.5, 40°C 10 days, against 0 day
[17] = molecular target: T2, human PD-1 extracellular domain protein …; assay: ELISA; pH 5.5, 40°C 10 days, against 0 day
[18] = molecular target: T1, human TIM-3 extracellular domain-human …; assay: ELISA; preparation buffer, 37°C 14 days, against 0 day
[19] = molecular target: T2, human PD-1 extracellular domain protein …; assay: as above
[20] = molecular target: T1, human TIM-3 extracellular domain-human …; assay: ELISA; 15 mg/mL, His buffer pH 6.0, 37°C 0 day (-80°C)
[21] = molecular target: T2, human PD-1 extracellular domain protein …; assay: as above
[22] = molecular target: T1, human TIM-3 extracellular domain-human …; assay: ELISA; 28.5 mg/mL, His buffer pH 5.5, 37°C 0 day (-80°C)
[23] = molecular target: T2, human PD-1 extracellular domain protein …; assay: as above
[24] = molecular target: T1, human TIM-3 extracellular domain-human …; assay: ELISA, EC50 of bispecific over EC50 of the monoclonal control
[25] = molecular target: T3, TIM-3-hFc (Acro biosystems, 22-142) (human, UniProt Q8TDQ0 22-142); assay: double-sandwich ELISA: TIM-3-hFc coated, LB141 titrated, detected with PD-1-his and anti-his-HRP
T3 construct: Bought; not shown: human Fc (hFc)

B1: bispecific antibody LB141 (bispecific antibody, human IgG4 S228P, kappa)
light: EIVLTQSPATLSLSPGERATLSCRASKGVSTSGYSYLHWYQQKPGQAPRLLIYLASYLESGVPARFSGSGSGTDFTLTISSLEPEDFAVYYCQHSRDLPLTFGGGTKVEIKRTVAAPSVFIFPPSDEQLKSGTASVVCLLNNFYPREAKVQWKVDNALQSGNSQESVTEQDSKDSTYSLSSTLTLSKADYEKHKVYACEVTHQGLSSPVTKSFNRGEC
heavy: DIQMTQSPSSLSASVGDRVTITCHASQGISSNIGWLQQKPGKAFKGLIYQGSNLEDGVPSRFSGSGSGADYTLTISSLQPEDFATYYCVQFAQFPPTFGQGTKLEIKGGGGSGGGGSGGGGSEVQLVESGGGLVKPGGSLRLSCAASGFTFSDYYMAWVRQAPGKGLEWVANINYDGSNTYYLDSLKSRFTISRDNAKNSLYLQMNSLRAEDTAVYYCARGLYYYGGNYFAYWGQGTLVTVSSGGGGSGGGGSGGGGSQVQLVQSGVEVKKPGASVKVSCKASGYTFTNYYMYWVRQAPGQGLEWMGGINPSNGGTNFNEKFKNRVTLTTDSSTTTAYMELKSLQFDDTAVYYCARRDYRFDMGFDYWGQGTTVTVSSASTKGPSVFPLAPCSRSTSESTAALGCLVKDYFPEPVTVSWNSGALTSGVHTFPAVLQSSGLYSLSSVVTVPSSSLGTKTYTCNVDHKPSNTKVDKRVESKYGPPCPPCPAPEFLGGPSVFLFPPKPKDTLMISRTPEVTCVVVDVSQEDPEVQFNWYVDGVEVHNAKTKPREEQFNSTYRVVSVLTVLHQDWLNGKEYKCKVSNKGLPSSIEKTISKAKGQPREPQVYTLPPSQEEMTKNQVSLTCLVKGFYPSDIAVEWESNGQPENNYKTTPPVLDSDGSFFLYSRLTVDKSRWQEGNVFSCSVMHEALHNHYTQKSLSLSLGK
notes: ab6VL-(G4S)3-ab6VH-(G4S)3-PemVH-hIgG4 with PemVL-κ
EC50 [1]: 157 pM
EC50 [2]: 128 pM
EC50 [3]: 136 pM
EC50 [4]: 116 pM
EC50 [5]: 334 pM
EC50 [6]: 217 pM
Fold change of EC50 [7]: 1.16 ratio
Fold change of EC50 [8]: 2.71 ratio
Fold change of EC50 [9]: 1.37 ratio
Fold change of EC50 [10]: 1.06 ratio
Fold change of EC50 [11]: 0.89 ratio
Fold change of EC50 [12]: 0.93 ratio
Fold change of EC50 [13]: 1.2 ratio
Fold change of EC50 [14]: 0.85 ratio
Fold change of EC50 [15]: 1.1 ratio
Fold change of EC50 [16]: 1.04 ratio
Fold change of EC50 [17]: 1.19 ratio
Fold change of EC50 [18]: 47.9 ratio
Fold change of EC50 [19]: 1.18 ratio
EC50 [20]: 164 pM
EC50 [21]: 146 pM
EC50 [22]: 360 pM
EC50 [23]: 181 pM
Multiple of EC50 variation [24]: 0.83 ratio
EC50 [25]: 931 pM
